# Measurements reported in US20230052369A1 (Zymeworks, published 2023).
# B1: v28687 (antibody, human IgG1, kappa, L234A L235A, V domains shown)
# VH: EVQLVESGGGLVQPGGSLRLSCAASGFTFSEFGMHWVRQAPGKGLEWVAYISSGGSTIYYADSVKGRFTISRDNAKNSLYLQMNSLRAEDTAVYYCARDWVDYWGQGTLLTVSS
# VL: EIVLTQSPATLSLSPGERATLSCKASENVGSYVSWYQQKPGQAPRLLIYGASNRYTGIPARFSGSGSGTDFTLTISSLEPEDFAVYYCGQSYSYPLTFGGGTKVEIKR
# notes: also called humanized 1G1 H2L1
# B2: v28693 (antibody, human IgG1, kappa, L234A L235A, V domains shown)
# VH: EVQLVESGGGLVQPGGSLRLSCAASGFTFSEFGMHWVRQAPGKGLEWVAYISSGGSTIYYADSVKGRFTISRDNAKNSLYLQMNSLRAEDTAMYYCARDWVDYWGQGTLLTVSS
# VL: EIVMTQSPATLSLSPGERVTLSCKASENVGSYVSWYQQKPGQAPRLLIYGASNRYTGVPARFSGSGSGTDFTLTISSVEPEDFAVYYCGQSYSYPLTFGGGTKLELKR
# notes: also called humanized 1G1 H3L3
# B3: v28692 (antibody, human IgG1, kappa, L234A L235A, V domains shown)
# VH: EVQLVESGGGLVQPGGSLRLSCAASGFTFSEFGMHWVRQAPGKGLEWVAYISSGGSTIYYADSVKGRFTISRDNAKNSLYLQMNSLRAEDTAMYYCARDWVDYWGQGTLLTVSS
# VL: EIVLTQSPATLSLSPGERATLSCKASENVGSYVSWYQQKPGQAPRLLIYGASNRYTGVPARFSGSGSGTDFTLTISSLEPEDFAVYYCGQSYSYPLTFGGGTKVEIKR
# notes: also called humanized 1G1 H3L2
# B4: v28690 (antibody, human IgG1, kappa, L234A L235A, V domains shown)
# VH: EVQLVESGGGLVQPGGSLRLSCAASGFTFSEFGMHWVRQAPGKGLEWVAYISSGGSTIYYADSVKGRFTISRDNAKNSLYLQMNSLRAEDTAVYYCARDWVDYWGQGTLLTVSS
# VL: EIVMTQSPATLSLSPGERVTLSCKASENVGSYVSWYQQKPGQAPRLLIYGASNRYTGVPARFSGSGSGTDFTLTISSVEPEDLAVYYCGQSYSYPLTFGGGTKLELKR
# notes: also called humanized 1G1 H2L4
# B5: v28691 (antibody, human IgG1, kappa, L234A L235A, V domains shown)
# VH: EVQLVESGGGLVQPGGSLRLSCAASGFTFSEFGMHWVRQAPGKGLEWVAYISSGGSTIYYADSVKGRFTISRDNAKNSLYLQMNSLRAEDTAMYYCARDWVDYWGQGTLLTVSS
# VL: EIVLTQSPATLSLSPGERATLSCKASENVGSYVSWYQQKPGQAPRLLIYGASNRYTGIPARFSGSGSGTDFTLTISSLEPEDFAVYYCGQSYSYPLTFGGGTKVEIKR
# notes: also called humanized 1G1 H3L1
# B6: v28689 (antibody, human IgG1, kappa, L234A L235A, V domains shown)
# VH: EVQLVESGGGLVQPGGSLRLSCAASGFTFSEFGMHWVRQAPGKGLEWVAYISSGGSTIYYADSVKGRFTISRDNAKNSLYLQMNSLRAEDTAVYYCARDWVDYWGQGTLLTVSS
# VL: EIVMTQSPATLSLSPGERVTLSCKASENVGSYVSWYQQKPGQAPRLLIYGASNRYTGVPARFSGSGSGTDFTLTISSVEPEDFAVYYCGQSYSYPLTFGGGTKLELKR
# notes: also called humanized 1G1 H2L3
# B7: v28694 (antibody, human IgG1, kappa, L234A L235A, V domains shown)
# VH: EVQLVESGGGLVQPGGSLRLSCAASGFTFSEFGMHWVRQAPGKGLEWVAYISSGGSTIYYADSVKGRFTISRDNAKNSLYLQMNSLRAEDTAMYYCARDWVDYWGQGTLLTVSS
# VL: EIVMTQSPATLSLSPGERVTLSCKASENVGSYVSWYQQKPGQAPRLLIYGASNRYTGVPARFSGSGSGTDFTLTISSVEPEDLAVYYCGQSYSYPLTFGGGTKLELKR
# notes: also called humanized 1G1 H3L4
# B8: v28705 (antibody, human IgG1, kappa, L234A L235A, V domains shown)
# VH: QVQLQESGPGLVKPSETLSITCTVSGFSLISYGVHWVRQPPGKGLEWLGVIWSGGSTDYNPSLKSRVTISKDTSKNQVSFKLSSLTAADTAIYYCARNPLTATVMDYWGQGTLVTVSS
# VL: DIQMTQSPSSLSASVGDRVTVTCRASQNVGTNVAWYQQKPGKAPKALIYSASYRDSGVPSRFSGSGSGTDFTLTISSVQPEDFATYYCQQYNSYPLTFGGGTKLEIKR
# notes: also called humanized 5G8 H3L3
# B9: v28704 (antibody, human IgG1, kappa, L234A L235A, V domains shown)
# VH: QVQLQESGPGLVKPSETLSITCTVSGFSLISYGVHWVRQPPGKGLEWLGVIWSGGSTDYNPSLKSRVTISKDTSKNQVSFKLSSLTAADTAIYYCARNPLTATVMDYWGQGTLVTVSS
# VL: DIQMTQSPSSLSASVGDRVTITCRASQNVGTNVAWYQQKPGKAPKALIYSASYRDSGVPSRFSGSGSGTDFTLTISSLQPEDFATYYCQQYNSYPLTFGGGTKVEIKR
# notes: also called humanized 5G8 H3L2
# B10: v28707 (antibody, human IgG1, kappa, L234A L235A, V domains shown)
# VH: QVQLQESGPGLVKPSETLSITCTVSGFSLISYGVHWVRQPPGKGLEWLGVIWSGGSTDYNPSLKSRVTISKDNSKNQVSFKLSSLTAADTAIYYCARNPLTATVMDYWGQGTLVTVSS
# VL: DIQMTQSPSSLSASVGDRVTITCRASQNVGTNVAWFQQKPGKAPKSLIYSASYRDSGVPSRFSGSGSGTDFTLTISSLQPEDFATYYCQQYNSYPLTFGGGTKVEIKR
# notes: also called humanized 5G8 H4L1
# B11: v28711 (antibody, human IgG1, kappa, L234A L235A, V domains shown)
# VH: QVQLQESGPGLVKPSETLSITCTVSGFSLISYGVHWVRQPPGKGLEWLGVIWSGGSTDYNPSLKSRVTISKDNSKNQVSFKLSSLTAADTAIYYCARNPLTATVMDYWGQGTLVTVSS
# VL: DIQMTQSPSSLSASVGDRVTITCRASQNVGTNVAWYQQKPGKAPKALIYSASYRDSGVPSRFSGSGSGTDFTLTISSLQPEDFATYYCQQYNSYPLTFGGGTKVEIKR
# notes: also called humanized 5G8 H4L2
# B12: v28713 (antibody, human IgG1, kappa, L234A L235A, V domains shown)
# VH: QVQLQESGPGLVKPSETLSITCTVSGFSLISYGVHWVRQPPGKGLEWLGVIWSGGSTDYNPSLKSRVTISKDNSKNQVSFKLSSLTAADTAIYYCARNPLTATVMDYWGQGTLVTVSS
# VL: DIQMTQSPSSLSASVGDRVTVTCRASQNVGTNVAWYQQKPGKAPKALIYSASYRDSGVPSRFSGSGSGTDFTLTISSVQPEDLATYYCQQYNSYPLTFGGGTKLEIKR
# notes: also called humanized 5G8 H4L4
# B13: v28703 (antibody, human IgG1, kappa, L234A L235A, V domains shown)
# VH: QVQLQESGPGLVKPSETLSITCTVSGFSLISYGVHWVRQPPGKGLEWLGVIWSGGSTDYNPSLKSRVTISKDTSKNQVSFKLSSLTAADTAIYYCARNPLTATVMDYWGQGTLVTVSS
# VL: DIQMTQSPSSLSASVGDRVTITCRASQNVGTNVAWFQQKPGKAPKSLIYSASYRDSGVPSRFSGSGSGTDFTLTISSLQPEDFATYYCQQYNSYPLTFGGGTKVEIKR
# notes: also called humanized 5G8 H3L1
# B14: v28706 (antibody, human IgG1, kappa, L234A L235A, V domains shown)
# VH: QVQLQESGPGLVKPSETLSITCTVSGFSLISYGVHWVRQPPGKGLEWLGVIWSGGSTDYNPSLKSRVTISKDTSKNQVSFKLSSLTAADTAIYYCARNPLTATVMDYWGQGTLVTVSS
# VL: DIQMTQSPSSLSASVGDRVTVTCRASQNVGTNVAWYQQKPGKAPKALIYSASYRDSGVPSRFSGSGSGTDFTLTISSVQPEDLATYYCQQYNSYPLTFGGGTKLEIKR
# notes: also called humanized 5G8 H3L4
# B15: v28700 (antibody, human IgG1, kappa, L234A L235A, V domains shown)
# VH: QVQLQESGPGLVKPSETLSLTCTVSGFSLISYGVHWVRQPPGKGLEWLGVIWSGGSTDYNPSLKSRVTISKDTSKNQFSLKLSSVTAADTAVYYCARNPLTATVMDYWGQGTLVTVSS
# VL: DIQMTQSPSSLSASVGDRVTITCRASQNVGTNVAWYQQKPGKAPKALIYSASYRDSGVPSRFSGSGSGTDFTLTISSLQPEDFATYYCQQYNSYPLTFGGGTKVEIKR
# notes: also called humanized 5G8 H2L2
# B16: v28698 (antibody, human IgG1, kappa, L234A L235A, V domains shown)
# VH: QVQLQESGPGLVKPSETLSLTCTVSGFSLISYGVHWIRQPPGKGLEWIGVIWSGGSTDYNPSLKSRVTISVDTSKNQFSLKLSSVTAADTAVYYCARNPLTATVMDYWGQGTLVTVSS
# VL: DIQMTQSPSSLSASVGDRVTVTCRASQNVGTNVAWYQQKPGKAPKALIYSASYRDSGVPSRFSGSGSGTDFTLTISSVQPEDLATYYCQQYNSYPLTFGGGTKLEIKR
# notes: also called humanized 5G8 H1L4
# B17: v28712 (antibody, human IgG1, kappa, L234A L235A, V domains shown)
# VH: QVQLQESGPGLVKPSETLSITCTVSGFSLISYGVHWVRQPPGKGLEWLGVIWSGGSTDYNPSLKSRVTISKDNSKNQVSFKLSSLTAADTAIYYCARNPLTATVMDYWGQGTLVTVSS
# VL: DIQMTQSPSSLSASVGDRVTVTCRASQNVGTNVAWYQQKPGKAPKALIYSASYRDSGVPSRFSGSGSGTDFTLTISSVQPEDFATYYCQQYNSYPLTFGGGTKLEIKR
# notes: also called humanized 5G8 H4L3
# B18: v28701 (antibody, human IgG1, kappa, L234A L235A, V domains shown)
# VH: QVQLQESGPGLVKPSETLSLTCTVSGFSLISYGVHWVRQPPGKGLEWLGVIWSGGSTDYNPSLKSRVTISKDTSKNQFSLKLSSVTAADTAVYYCARNPLTATVMDYWGQGTLVTVSS
# VL: DIQMTQSPSSLSASVGDRVTVTCRASQNVGTNVAWYQQKPGKAPKALIYSASYRDSGVPSRFSGSGSGTDFTLTISSVQPEDFATYYCQQYNSYPLTFGGGTKLEIKR
# notes: also called humanized 5G8 H2L3
# B19: v28702 (antibody, human IgG1, kappa, L234A L235A, V domains shown)
# VH: QVQLQESGPGLVKPSETLSLTCTVSGFSLISYGVHWVRQPPGKGLEWLGVIWSGGSTDYNPSLKSRVTISKDTSKNQFSLKLSSVTAADTAVYYCARNPLTATVMDYWGQGTLVTVSS
# VL: DIQMTQSPSSLSASVGDRVTVTCRASQNVGTNVAWYQQKPGKAPKALIYSASYRDSGVPSRFSGSGSGTDFTLTISSVQPEDLATYYCQQYNSYPLTFGGGTKLEIKR
# notes: also called humanized 5G8 H2L4
# Key:
# [1] = molecular target: T1, purified human monomeric 4-1BB (human, UniProt Q07011 24-186); test: SPR, mean n=3;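 further: antibodies captured on anti-human Fc chip, 4-1BB injected as five-point two-fold series from 40 nM by single-cycle kinetics at 25 °C, sensorgrams fitted to 1:1 Langmuir model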
# T1 construct: the assay used the 4-1BB part released by Factor Xa with the Fc removed; also called h4-1BB; human 4-1BB
# Description: The anti-human Fc surface was prepared on a CMS Series S sensorchip by standard amine coupling methods as described by the manufacturer (GE Healthcare). Briefly, immediately after EDC/NHS activation, a 25 μg/mL solution of anti-human Fc in 10 mM NaOAc pH 4.5 was injected at a flow rate of 10 μL/min for 420 s until approximately 2000 resonance units (RUs) were immobilized on all four flow cells. The remaining active groups were quenched by a 420 s injection of 1M ethanolamine at 10 μL/min.
# Antibodies for analysis were captured onto the anti-Fc surface by injecting 5 μg/mL solutions at a flow rate of 10 μL/min for 60 s. Using single-cycle kinetics, five concentrations of a two-fold dilution series of 4-1BB starting at 40 nM (for both supernatant and purified antibody runs) with a blank buffer control were sequentially injected at 40 μL/min for 180 s with a 600 s dissociation phase, resulting in a set of sensorgrams with a buffer blank reference. Experiments were performed at a constant temperature of 25° C. The anti-human Fc surfaces were regenerated to prepare for the next injection cycle by one pulse of 10 mM Glycine/HCl pH 1.5 for 120 s at 40 μL/min. Blank-subtracted sensorgrams were analyzed using Biacore™ T200 Evaluation Software v3.0. The blank-subtracted sensorgrams were then fit to the 1:1 Langmuir binding model.
# Protein material post protein-A or SEC was assessed for binding to human 4-1BB.
# [2] = molecular target: T2, human 4-1BB, full-length, expressed on cells (human, UniProt Q07011 24-255); test: flow cytometry, Jurkat-4-1BB
# T2 construct: also called CD137; TNFRSF9
# T2 sequence (Q07011 24-255): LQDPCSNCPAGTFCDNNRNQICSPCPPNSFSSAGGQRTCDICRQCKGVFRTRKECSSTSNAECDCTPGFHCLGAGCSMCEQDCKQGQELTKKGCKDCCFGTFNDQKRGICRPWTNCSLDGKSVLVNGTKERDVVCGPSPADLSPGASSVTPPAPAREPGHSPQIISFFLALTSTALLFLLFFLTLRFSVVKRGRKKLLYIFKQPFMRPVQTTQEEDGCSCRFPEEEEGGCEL
# Description: Jurkat T cells engineered to stably express human 4-1BB were used to measure binding of antibodies to human 4-1BB. Antibodies were diluted in 5 μl FB (PBS 2% FCS) 1:3 from stock in wells of a 96 V-well plate, and cells added on top. The cells were then left on ice for 30 minutes for the antibodies to bind. The cells were then washed twice in FB, and then incubated in 50 μl FB containing 2 μg/ml goat anti-human Alexa647 antibody (Jackson Immunoresearch). The cells were then left on ice for a further 20 minutes, washed twice in FB, resuspended in 100 μl FB and analysed on a BD Fortessa™ X20. The subsequent data files were analysed using FlowJo™ and Prism 7 (GraphPad) using a four-parameter non-linear regression.
# T1 sequence (Q07011 other isoform, or with tags, fused parts or gaps limits assumed): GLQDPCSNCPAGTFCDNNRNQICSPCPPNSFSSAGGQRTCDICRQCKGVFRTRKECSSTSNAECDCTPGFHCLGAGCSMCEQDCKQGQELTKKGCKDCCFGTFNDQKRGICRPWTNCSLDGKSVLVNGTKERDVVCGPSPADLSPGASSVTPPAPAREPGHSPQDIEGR
binder,measurement,setting,value
B1,Kd,[1],40.3 nM
same,EC50,[2],1 nM
B2,Kd,[1],36.2 nM
same,EC50,[2],0.353 nM
B3,Kd,[1],46.4 nM
same,EC50,[2],0.771 nM
B4,Kd,[1],34.4 nM
same,EC50,[2],0.376 nM
B5,Kd,[1],54.2 nM
same,EC50,[2],1.44 nM
B6,Kd,[1],58.3 nM
same,EC50,[2],0.486 nM
B7,Kd,[1],34.7 nM
same,EC50,[2],0.455 nM
B8,Kd,[1],195 nM
same,EC50,[2],3.32 nM
B9,Kd,[1],179 nM
same,EC50,[2],3.46 nM
B10,Kd,[1],732 nM
same,EC50,[2],51.6 nM
B11,Kd,[1],227 nM
same,EC50,[2],139 nM
B12,Kd,[1],184 nM
same,EC50,[2],2.34 nM
B13,Kd,[1],811 nM
same,EC50,[2],3.58 nM
B14,Kd,[1],159 nM
same,EC50,[2],1.92 nM
B15,Kd,[1],222 nM
same,EC50,[2],56.4 nM
B16,Kd,[1],1110 nM
same,EC50,[2],38.3 nM
B17,Kd,[1],229 nM
same,EC50,[2],3.56 nM
B18,Kd,[1],610 nM
same,EC50,[2],30 nM
B19,Kd,[1],620 nM
same,EC50,[2],55.6 nM
